Results reported in paper PMC5372742, “Protection of the Queuosine Biosynthesis Enzyme QueF from Irreversible Oxidation by a Conserved Intramolecular Disulfide” (Biomolecules, 2017).

Substrate: N#Cc1c[nH]c2nc(N)[nH]c(=O)c12
Assay: steady-state kinetics, fluorescence assay of product NADP+
Format: biochemical, Bacillus subtilis
Settings: co-substrate NADPH

B1: B. subtilis QueF (Bacillus subtilis subsp. subtilis str. 168; E98Q) (protein)
chain: MTTRKESELEGVTLLGNQGTNYLFEYAPDVLESFPNKHVNRDYFVKFNCPEFTSLCPKTGQPDFATIYISYIPDEKMVESKSLKLYLFSFRNHGDFHQDCMNIIMNDLIELMDPRYIEVWGKFTPRGGISIDPYTNYGKPGTKYEKMAEYRMMNHDLYPETIDNR
notes: queF gene in pET-30Xa, expressed in E. coli BL21(DE3); ~160 amino acids, single T-fold domain, homodecamer; active sites at intersubunit interfaces
With B1 the Km was 67 µM and the kcat was 0.0006 s⁻¹.
